The values below come from paper PMC6171917 (PLoS ONE, 2018).

Assay [1] deals with T1, K5 (cytokeratin 5), purified (UniProt P13647 1-590).
T1 construct: cytokeratin 5 (K5), plasmid pET23-K5; source: E. coli Rosetta pLysS, inclusion bodies, purified (cation exchange, Superdex 200 in 6 M urea)
T1 sequence (looked up): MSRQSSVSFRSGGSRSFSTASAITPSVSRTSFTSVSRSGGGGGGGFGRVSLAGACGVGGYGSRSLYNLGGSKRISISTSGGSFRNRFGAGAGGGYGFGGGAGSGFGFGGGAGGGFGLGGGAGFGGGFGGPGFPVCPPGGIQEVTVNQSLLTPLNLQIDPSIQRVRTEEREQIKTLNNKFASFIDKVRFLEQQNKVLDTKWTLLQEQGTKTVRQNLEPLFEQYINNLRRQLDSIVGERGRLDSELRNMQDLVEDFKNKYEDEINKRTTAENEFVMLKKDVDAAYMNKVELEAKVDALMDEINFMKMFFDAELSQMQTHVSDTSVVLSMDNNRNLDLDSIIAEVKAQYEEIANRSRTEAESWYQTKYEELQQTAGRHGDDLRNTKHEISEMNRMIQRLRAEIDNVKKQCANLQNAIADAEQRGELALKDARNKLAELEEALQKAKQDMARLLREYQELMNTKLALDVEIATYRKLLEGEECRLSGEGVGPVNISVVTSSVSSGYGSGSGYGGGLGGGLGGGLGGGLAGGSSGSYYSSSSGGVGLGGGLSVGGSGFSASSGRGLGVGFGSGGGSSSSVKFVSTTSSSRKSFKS
As to the kind of experiment: co-sedimentation; K5 and K14 mixed 1.1:1, heterodimer isolated on anion exchanger in 8 M urea, dialyzed against 0.7 mM sodium phosphate pH 7.5, assembly with 20 mM KCl at 37°C 30 min; 20,000 × g 4°C 30 min, pellet and supernatant by SDS-PAGE. To be noted: both partners purified.

For another assay, the target named is T2, desmin, full-length (UniProt P17661 1-470).
T2 construct: desmin; The desmin fragments are said to be human; also called desmin IFs; source: E. coli, purified following a published protocol [37]; also whole E. coli extract; assembled in vitro into IFs for sedimentation assays
As to the kind of experiment: co-sedimentation; FluoBACE on in vitro assembled IFs (25 μg/mL constant); serial dilutions of HEK 293T soluble extract with EGFP-DSP C-terminus (active ≤ 30 nM); 15 min at 4°C (K5/K14 IFs) or 22°C (desmin IFs); 20,000 × g 30 min; fluorescence in supernatant; one site specific binding with Hill slope; apparent Kd. The conditions noted are these: one partner purified.

In assay [2] the target is T3, K5/K14 (mixture or heterodimer of full-length cytokeratins 5 and 14) (UniProt P13647 1-590; P02533 1-472).
T3 construct: cytokeratin 5 (K5), plasmid pET23-K5; cytokeratin 14 (K14), plasmid pET23-K14; Same two recombinant proteins used spotted in 8 M urea (dot blot) and as in vitro assembled filaments (sedimentation assays); also called K5/K14 IFs; K5/K14 filaments; source: mixed for spotting, or heterodimer isolated by anion exchange and assembled into IFs
T3 sequence (looked up) 1: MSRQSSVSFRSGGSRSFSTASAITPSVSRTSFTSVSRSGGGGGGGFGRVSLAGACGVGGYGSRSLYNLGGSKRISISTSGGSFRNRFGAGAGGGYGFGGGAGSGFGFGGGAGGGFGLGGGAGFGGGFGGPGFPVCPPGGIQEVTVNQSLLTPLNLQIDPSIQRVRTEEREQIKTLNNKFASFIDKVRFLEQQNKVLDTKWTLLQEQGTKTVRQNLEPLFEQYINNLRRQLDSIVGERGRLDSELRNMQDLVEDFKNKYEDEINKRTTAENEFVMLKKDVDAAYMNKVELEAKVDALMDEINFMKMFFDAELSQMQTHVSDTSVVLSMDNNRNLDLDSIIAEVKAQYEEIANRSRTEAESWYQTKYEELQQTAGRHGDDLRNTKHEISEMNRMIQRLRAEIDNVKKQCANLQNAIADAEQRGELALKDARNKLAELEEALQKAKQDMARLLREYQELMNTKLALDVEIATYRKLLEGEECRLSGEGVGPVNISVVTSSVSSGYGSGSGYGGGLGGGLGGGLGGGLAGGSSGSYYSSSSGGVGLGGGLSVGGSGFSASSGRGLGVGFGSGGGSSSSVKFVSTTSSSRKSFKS
T3 sequence (looked up) 2: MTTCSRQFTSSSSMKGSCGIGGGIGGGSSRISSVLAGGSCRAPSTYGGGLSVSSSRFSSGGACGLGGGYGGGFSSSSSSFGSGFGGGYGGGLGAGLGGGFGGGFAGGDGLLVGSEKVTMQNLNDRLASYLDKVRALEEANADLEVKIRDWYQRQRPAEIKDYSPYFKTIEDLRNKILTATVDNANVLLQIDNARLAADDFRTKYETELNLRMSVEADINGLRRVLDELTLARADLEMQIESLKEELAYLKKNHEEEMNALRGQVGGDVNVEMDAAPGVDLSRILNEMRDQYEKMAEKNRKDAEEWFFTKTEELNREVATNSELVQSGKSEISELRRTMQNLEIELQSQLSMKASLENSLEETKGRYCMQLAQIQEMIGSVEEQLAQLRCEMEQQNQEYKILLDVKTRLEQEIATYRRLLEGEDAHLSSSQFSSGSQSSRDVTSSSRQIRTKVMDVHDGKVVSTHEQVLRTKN
The assay is described as above. To be noted: one partner purified.

T2 sequence (P17661 whole entry, the tested form may be a part): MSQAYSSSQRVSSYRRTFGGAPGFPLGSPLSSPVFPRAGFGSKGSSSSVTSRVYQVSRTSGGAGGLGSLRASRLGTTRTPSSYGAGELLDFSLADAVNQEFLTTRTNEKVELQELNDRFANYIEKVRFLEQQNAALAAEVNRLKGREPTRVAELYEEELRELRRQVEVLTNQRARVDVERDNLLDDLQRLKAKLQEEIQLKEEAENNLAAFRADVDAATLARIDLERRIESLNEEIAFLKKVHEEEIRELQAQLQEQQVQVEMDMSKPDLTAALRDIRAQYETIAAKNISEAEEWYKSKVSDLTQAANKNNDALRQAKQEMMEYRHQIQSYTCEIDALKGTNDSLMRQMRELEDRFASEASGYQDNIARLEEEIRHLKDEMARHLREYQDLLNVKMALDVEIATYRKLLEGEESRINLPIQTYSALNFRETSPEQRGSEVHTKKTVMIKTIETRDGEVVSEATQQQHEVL

B1: K14 (cytokeratin 14), purified (natural protein, UniProt P02533 1-472, looked up)
chain: MTTCSRQFTSSSSMKGSCGIGGGIGGGSSRISSVLAGGSCRAPSTYGGGLSVSSSRFSSGGACGLGGGYGGGFSSSSSSFGSGFGGGYGGGLGAGLGGGFGGGFAGGDGLLVGSEKVTMQNLNDRLASYLDKVRALEEANADLEVKIRDWYQRQRPAEIKDYSPYFKTIEDLRNKILTATVDNANVLLQIDNARLAADDFRTKYETELNLRMSVEADINGLRRVLDELTLARADLEMQIESLKEELAYLKKNHEEEMNALRGQVGGDVNVEMDAAPGVDLSRILNEMRDQYEKMAEKNRKDAEEWFFTKTEELNREVATNSELVQSGKSEISELRRTMQNLEIELQSQLSMKASLENSLEETKGRYCMQLAQIQEMIGSVEEQLAQLRCEMEQQNQEYKILLDVKTRLEQEIATYRRLLEGEDAHLSSSQFSSGSQSSRDVTSSSRQIRTKVMDVHDGKVVSTHEQVLRTKN
notes: cytokeratin 14 (K14), plasmid pET23-K14; source: E. coli Rosetta, inclusion bodies, purified (anion exchange, gel filtration in 6 M urea)
As to B1, the binding result in assay [1] was “binds”.

B2: EGFP-DSP C-terminus (C-terminus of desmoplakin tagged at the N-terminus with EGFP) (domain or fragment, UniProt P15924-1 2194-2871, looked up)
chain: PHTGLLLLSVQKRSMSFQGIRQPVTVTELVDSGILRPSTVNELESGQISYDEVGERIKDFLQGSSCIAGIYNETTKQKLGIYEAMKIGLVRPGTALELLEAQAATGFIVDPVSNLRLPVEEAYKRGLVGIEFKEKLLSAERAVTGYNDPETGNIISLFQAMNKELIEKGHGIRLLEAQIATGGIIDPKESHRLPVDIAYKRGYFNEELSEILSDPSDDTKGFFDPNTEENLTYLQLKERCIKDEETGLCLLPLKEKKKQVQTSQKNTLRKRRVVIVDPETNKEMSVQEAYKKGLIDYETFKELCEQECEWEEITITGSDGSTRVVLVDRKTGSQYDIQDAIDKGLVDRKFFDQYRSGSLSLTQFADMISLKNGVGTSSSMGSGVSDDVFSSSRHESVSKISTISSVRNLTIRSSSFSDTLEESSPIAAIFDTENLEKISITEGIERGIVDSITGQRLLEAQACTGGIIHPTTGQKLSLQDAVSQGVIDQDMATRLKPAQKAFIGFEGVKGKKKMSAAEAVKEKWLPYEAGQRFLEFQYLTGGLVDPEVHGRISTEEAIRKGFIDGRAAQRLQDTSSYAKILTCPKTKLKISYKDAINRSMVEDITGLRLLEAASVSSKGLPSPYNMSSAPGSRSGSRSGSRSGSRSGSRSGSRRGGFDATGNSSYSYSYSFSSSSIGH
notes: construct previously described [8]; KD curves use the active concentration; source: HEK 293T, transfected (calcium phosphate), soluble fraction of cell lysate; not shown: EGFP, N-terminal, kept
On to B2, for which the Kd in the assay with desmin, full-length worked out at 18 nM; in assay [2] it was 10 nM.
